Experimental findings from PMC9438803 (Life Science Alliance, 2021) are described below.

In series [1] the target is T1, recombinant human Topoisomerase 2a lacking the unstructured C-terminal domain (1-1,217) (human, UniProt P11388 1-1217).
T1 construct: human Topoisomerase 2a residues 1-1,217; A legend on the cited structures calls Top2a a homodimer; also called Top2a ΔC; Top2aΔCTD; source: recombinant, purified
Kind of series: mass spectrometry of bands cut from the native PAGE; unshifted and shifted Top2a bands of the blue-native gel analysed by mass spectrometry. The conditions noted are these: both partners purified.

Series [2] concerns the target RPA49/RPA34 heterodimer full length (Homo sapiens, UniProt Q9GZS1;O15446 1-419;1-510). Put plainly: EMSA; EMSA: 100 fmol DNA, up to 50x protein, RT 30 min; buffer 1: 10 mM Tris pH 7.5, 50 mM NaCl, 1 mM MgCl2, 4% glycerol, 0.5 mM EDTA, 0.5 mM DTT; or buffer 2: 20 mM. The conditions noted are these: protein: recombinant; tags: N-term 6xHis on RPA49; RPA34 untagged; copies: 1;1; label: 5'-Cy5 on strand 1; blunt.

The next series deals with dock II minimal (Homo sapiens, UniProt O95602 1081-1146). Put plainly: EMSA; up to 50x protein excess; no major DNA binding; EMSA: 100 fmol DNA, up to 50x protein, RT 30 min; buffer 1: 10 mM Tris pH 7.5, 50 mM NaCl, 1 mM MgCl2, 4% glycerol, 0.5 mM EDTA, 0.5 mM DTT; or buffer 2: 20 mM. The conditions noted are these: protein: recombinant; tags: C-term His-MBP; label: 5'-Cy5 on strand 1; blunt.

T1 sequence (P11388 1-1217): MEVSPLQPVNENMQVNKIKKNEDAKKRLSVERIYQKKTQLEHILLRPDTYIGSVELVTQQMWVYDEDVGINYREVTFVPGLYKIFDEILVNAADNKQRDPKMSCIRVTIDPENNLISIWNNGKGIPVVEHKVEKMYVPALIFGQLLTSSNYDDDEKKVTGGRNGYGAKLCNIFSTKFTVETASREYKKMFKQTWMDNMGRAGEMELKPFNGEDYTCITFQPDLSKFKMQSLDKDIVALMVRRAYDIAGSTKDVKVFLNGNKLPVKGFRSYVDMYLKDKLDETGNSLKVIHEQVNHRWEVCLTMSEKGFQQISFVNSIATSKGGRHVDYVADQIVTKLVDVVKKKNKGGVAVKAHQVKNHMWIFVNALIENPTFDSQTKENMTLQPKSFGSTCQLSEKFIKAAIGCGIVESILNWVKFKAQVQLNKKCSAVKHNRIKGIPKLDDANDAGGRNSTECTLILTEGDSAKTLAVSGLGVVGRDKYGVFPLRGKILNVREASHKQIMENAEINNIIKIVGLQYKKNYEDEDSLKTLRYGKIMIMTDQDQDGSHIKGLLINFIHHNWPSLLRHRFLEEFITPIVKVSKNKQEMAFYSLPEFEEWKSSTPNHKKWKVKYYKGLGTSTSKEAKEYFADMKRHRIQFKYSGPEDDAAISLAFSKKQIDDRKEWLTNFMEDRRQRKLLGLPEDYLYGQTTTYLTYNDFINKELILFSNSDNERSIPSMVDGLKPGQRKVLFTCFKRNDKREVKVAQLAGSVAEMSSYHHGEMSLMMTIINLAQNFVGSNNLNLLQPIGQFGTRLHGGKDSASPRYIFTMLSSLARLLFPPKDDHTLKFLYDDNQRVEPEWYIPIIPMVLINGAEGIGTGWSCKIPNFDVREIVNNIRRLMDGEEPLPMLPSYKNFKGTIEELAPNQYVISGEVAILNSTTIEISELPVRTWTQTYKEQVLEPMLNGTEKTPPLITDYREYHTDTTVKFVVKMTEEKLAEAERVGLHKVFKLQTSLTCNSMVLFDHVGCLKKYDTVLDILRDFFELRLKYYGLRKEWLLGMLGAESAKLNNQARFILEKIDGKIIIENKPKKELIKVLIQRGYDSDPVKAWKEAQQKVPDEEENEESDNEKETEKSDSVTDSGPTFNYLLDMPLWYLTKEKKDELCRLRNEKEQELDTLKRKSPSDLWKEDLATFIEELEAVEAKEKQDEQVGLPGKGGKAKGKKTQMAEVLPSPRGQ
Sequence of RPA49/RPA34 heterodimer full length (Q9GZS1 whole entry, chain 1 of 2): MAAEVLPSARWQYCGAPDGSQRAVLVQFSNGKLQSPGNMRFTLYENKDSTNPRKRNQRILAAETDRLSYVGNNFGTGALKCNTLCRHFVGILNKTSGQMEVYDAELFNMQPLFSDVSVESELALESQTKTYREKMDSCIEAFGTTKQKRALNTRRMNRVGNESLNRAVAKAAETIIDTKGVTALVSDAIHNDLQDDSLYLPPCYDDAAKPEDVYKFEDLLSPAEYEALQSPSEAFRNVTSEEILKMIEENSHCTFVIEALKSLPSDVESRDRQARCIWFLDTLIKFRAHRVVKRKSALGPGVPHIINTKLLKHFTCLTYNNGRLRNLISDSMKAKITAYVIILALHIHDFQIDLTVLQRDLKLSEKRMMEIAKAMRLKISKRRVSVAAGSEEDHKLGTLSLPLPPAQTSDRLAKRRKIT
Sequence of RPA49/RPA34 heterodimer full length (O15446 whole entry, chain 2 of 2): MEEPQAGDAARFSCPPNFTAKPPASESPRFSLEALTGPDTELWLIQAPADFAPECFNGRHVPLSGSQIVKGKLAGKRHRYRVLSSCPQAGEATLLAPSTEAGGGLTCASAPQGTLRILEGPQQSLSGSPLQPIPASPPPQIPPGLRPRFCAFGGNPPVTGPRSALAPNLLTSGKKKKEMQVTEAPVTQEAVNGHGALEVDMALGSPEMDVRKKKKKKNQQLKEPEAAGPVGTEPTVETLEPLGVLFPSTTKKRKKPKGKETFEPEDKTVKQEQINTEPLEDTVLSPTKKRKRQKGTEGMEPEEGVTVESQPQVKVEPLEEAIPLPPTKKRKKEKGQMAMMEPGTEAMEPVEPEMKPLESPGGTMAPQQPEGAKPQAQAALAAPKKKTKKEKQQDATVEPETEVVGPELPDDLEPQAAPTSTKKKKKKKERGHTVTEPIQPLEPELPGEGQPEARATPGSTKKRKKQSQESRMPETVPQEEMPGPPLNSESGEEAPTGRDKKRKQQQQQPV

B1: human dock II domain, full-length fragment (RPA1 1060-1155) with C-terminal His-MBP-tag (domain or fragment, UniProt O95602 1060-1155, looked up)
chain: ADPKKALHHFRAIKKWQSKHPNTLLRRGAFLSYSQKIQEAVKALKLESENRNGRSPGTQEMLRMWYELDEESRRKYQKKAAACPDPSLSVWRPDIY
notes: human RPA1 residues 1060-1155, the dock II domain (HMG box-like foot insertion); The results call it MBP-dock II; the methods say that the His-MBP tag is C-terminal; also called full-length MBP-dock II; dock II-MBP fusion; source: E. coli BL21 (DE3) RIL, purified (Ni-NTA, Superdex 75); not shown: His, C-terminal, kept; MBP, C-terminal, kept
Take B1: the binding result in series [1] is reported as “binds”.

B2: EMSA-DNA 40 bp (dsDNA)
DNA 1: CTGGAACAACACTCAACCCTATCTCGGTCTATTCTTTTGA
DNA 2: TCAAAAGAATAGACCGAGATAGGGTTGAGTGTTGTTCCAG
Consider B2, for which the results for the binding result (in series [2]; in the series with dock II minimal) were “binds” and “no binding”, respectively.
